Reference: patent US20240239894A1, “THERAPEUTIC BINDING MOLECULES” (MedImmune Limited, priority 2020, published 2024)

Tests used:
[1] = target: human B7-H4 on cells (human) (UniProt Q7Z7D3); experiment: flow cytometry, AF647-labelled antibody at 156 ng/ml, HT29 cells expressing hB7-H4
[2] = target: T1, Human B7-H4-Fc (Human B7H4 ECD, Fc_6His) (human); experiment: ELISA on coated human B7H4/Fc, absorbance 450 nm, [IgG] 0.006 to 100 nM
T1 sequence (Q7Z7D3 whole entry, looked up): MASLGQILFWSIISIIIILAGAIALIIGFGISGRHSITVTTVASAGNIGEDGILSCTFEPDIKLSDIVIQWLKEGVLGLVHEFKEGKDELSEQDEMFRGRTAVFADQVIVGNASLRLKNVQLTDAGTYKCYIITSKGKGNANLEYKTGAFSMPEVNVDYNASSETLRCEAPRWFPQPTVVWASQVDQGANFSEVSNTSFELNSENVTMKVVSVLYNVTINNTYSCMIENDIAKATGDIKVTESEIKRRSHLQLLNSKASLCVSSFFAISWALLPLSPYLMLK

B1: 1D11 (Genentech anti-B7-H4 mAb) (antibody, from another filing, V domains shown)
VH: QVQLQQSGAELVRPGTSVKMSCKASGYTFTSYWIGWAKQRPGHGFEWIGDIYPGGGYTNYNEKFKGKATLTADKSSSTAYMQFSSLTSEDSAIYYCARLDGSSYRGAMDSWGQGTSITVSS
VL: DIQMTQSPSSLSASLGGKVTITCKASQGFNKYVAWYQHKPGQCPRLLIHYTSTLQPGIPARFSGSGSGRDYSFSISNLEPEDSATYFCLQYGNLLYAFGGGTKLEIKR
Geometric Mean : Comp-APC-A [1]: 1200 | EC50 (read off the curve) [2]: 5 nM
